The text below walks through data of the RNAGym collection of RNA variant scans (doi:10.1093/nar/gkz1192).

First the molecules themselves.
B1: CPEB3 Ribozyme (parent)
chain: UAACAGGGGGCCACAGCAGAAGCGUUCACGUCGCAGCCCCUGUCAGAUUCUGGUGAAUCUGCGAAUUCUGCUGUAUAUCUC

The data set covers variants of B1. As to the kind of experiment: self-cleavage, relative activity (ratio to wild type); higher = more cleavage; in vitro, sequencing. Put shortly: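 Libraries of CPEB3 self-cleaving ribozyme mutants came from rounds of error-prone PCR and carried barcodes, which DNA sequencing matched to variants. In vitro transcription used T7 RNA polymerase at 37°C for 5 hours, with a further 15 min in DNase I before EDTA stopped the reaction; the ribozymes cleaved during both steps. The RNA was reverse transcribed with template switching and sequenced on Illumina. Relative activity is the cleaved/total read fraction of a variant divided by that of the unmutated ribozyme, averaged over three batches with at least 5 reads.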
With A47C A65U, the self-cleavage worked out at 0.12.
The same measure for G16C A45U: 0.13; for C59U U72A: 0.4; for U51C U78C: 0.99.
As for G46U A75G, the figure is 0.22; as for C11U A75U, 0.43.
As for A18G A75U, the figure is 0.82; as for C34A G46U, 0.15.
With U1C U31C, the self-cleavage was found to be 0.7.
As for G30U U66A, the figure is 0.13; as for U26C C29U, 0.29.
As for U48C G70C, the figure is 0.21; as for U26G U72A, 0.14.
For U78A, the self-cleavage was 1.12.
On to G22A A75U, for which the self-cleavage came out at 0.37.
As for U58C C81A, the figure is 0.75; as for A21G G42U, 0.37; as for G8A, 0.27.
Take A18U C68A: the self-cleavage was 0.2.
The same measure for U25A A35U: 0.29; for A18C G42A: 0.17; for G53A A64U: 0.48.
The same measure for C40A A77G: 0.28.
As to U26C U74C, the self-cleavage came out at 0.79.
Regarding C12U A21U, the self-cleavage amounted to 1.
In the case of C17U U69A, the self-cleavage was 0.4.
As for U49A G63U, the figure is 0.63; as for A21C U69C, 0.2.
With U1C U72G, the self-cleavage was 1.
As for G36U A57G, the figure is 0.48.
On to U26C G36U, for which the self-cleavage is 0.25.
The same measure for U60A U76C: 0.56; for C37U A65G: 0.28; for U69C C71A: 0.2.
The same measure for C34U U48C: 0.47.
As for G33U U49C, the figure is 0.15; as for C38U A45G, 0.58; as for A45G G52C, 0.91.
For the variant U78A U80G, the self-cleavage stood at 1.29.
Turning to U1C C68G, the self-cleavage turned out to be 0.25.
The same measure for G6A A15G: 0.36; for A64C G70A: 0.33.
For the variant G10A A65C, the self-cleavage was determined as 0.09.
As for U26A U31A, the figure is 0.34; as for U26A U31C, 0.69; as for A20U U54G, 0.26.
The same measure for A2U: 0.96; for G6A G73U: 0.89; for A35U U60A: 0.25.
With C14U G46A, the self-cleavage came to 0.12.
As for G10A U54A, the figure is 0.35; as for U1C U58A, 0.46; as for G55C A77G, 1.04.
As for A13U U78A, the figure is 1.21; as for G19A U31A, 0.44; as for A2U U67C, 0.39.
Take U51C G53A: the self-cleavage turned out to be 1.18.
As for U43C U51G, the figure is 0.75; as for G55U C62U, 0.23.
The same measure for G42A U54A: 0.45; for A56G U60A: 0.41; for C11U A47U: 0.31.
Consider C11U A47G, for which the self-cleavage was 0.36.
The same measure for A47C: 0.4.
The same measure for A21G U66A: 0.42; for A28U A75G: 0.71.
As for A13G C39U, the figure is 1; as for C23U C44A, 0.38.
For the variant U72C, the self-cleavage is 1.13.
The same measure for G19C U48A: 0.18; for U49C U69G: 0.25.
In the case of A15G C59A, the self-cleavage stood at 0.27.
On to G7U A64U, for which the self-cleavage is 0.13.
With C34U U66C, the self-cleavage was determined as 0.35.
As for G22U U41A, the figure is 0.17; as for C27A U41C, 0.24.
The same measure for G30A G55A: 0.2; for A45G U72C: 0.98.
As for C14U A75G, the figure is 1.23; as for A13U A77U, 1.22.
In the case of A3G U74A, the self-cleavage stood at 1.22.
In the case of A28U U69C, the self-cleavage amounted to 0.33.
Consider U54A U66C, for which the self-cleavage is 0.49.
The same measure for G6A U69C: 0.15; for U1G U72A: 0.71.
As for U41A U66C, the self-cleavage turned out to be 0.23.
The same measure for U41A A64G: 0.28; for G63A A64U: 0.54; for U1C A15C: 0.62.
The same measure for U31G C32U: 0.22; for A20U C27U: 0.18.
The same measure for G63U U78A: 0.98.
As for G52A U69C, the self-cleavage was found to be 0.62.
The same measure for A18G C40U: 0.44; for U31A U49C: 0.22; for A3G A5G: 0.76.
The same measure for G7U U67C: 0.25; for G52U U67A: 0.71; for G52U U67G: 0.33.
As for C32G, the figure is 0.23; as for U60C, 0.54; as for A35G G63A, 1.29.
As to A15U U60A, the self-cleavage is 0.32.
Take A5G U54A: the self-cleavage turned out to be 0.82.
As for G24A U25A, the figure is 0.26; as for A28G C59A, 0.2; as for C11A U41C, 0.58.
The same measure for A3C U41A: 0.24; for C14U U72C: 1.21; for G19U U80A: 0.19.
As for A35C U78C, the figure is 0.73; as for C12A C17G, 0.16; as for U1A A47U, 0.78.
For A3G C11G, the self-cleavage was determined as 0.54.
The same measure for G7U: 0.25; for A13U U67A: 0.7; for A5C A65G: 0.44.
The same measure for U41C A65C: 0.4; for A20U G73A: 0.67; for A20G U26C: 0.37.
The same measure for G70A U74A: 0.73; for A3C U31G: 0.93; for A45G C81A: 1.02.
Take G33C U49C: the self-cleavage was found to be 0.12.
The same measure for A5U U80A: 1.32; for C4U G63U: 1.23; for U54C A75G: 0.88.
In the case of A28C C71U, the self-cleavage worked out at 0.41.
As for A2U G8A, the figure is 0.27.
Turning to A5U A64C, the self-cleavage is 0.32.
As for C29U U80A, the figure is 0.48; as for U51G U78C, 0.97.
On to A47G U48G, for which the self-cleavage is 0.26.
As for A15U U76C, the figure is 0.88.
The same measure for A45U A77U: 0.55; for G19C A35C: 0.2.
Regarding G10U C38G, the self-cleavage was found to be 0.17.
The same measure for A5C U60A: 0.64; for G9A U54A: 0.13.
The same measure for A2C U51A: 0.7.
The same measure for A15U A47U: 0.34; for C11U U76C: 0.43; for U41A U43G: 0.4.
Consider A5U U72G, for which the self-cleavage worked out at 0.94.
In the case of A18U A77G, the self-cleavage amounted to 0.51.
The same measure for U54A U67A: 0.67; for A28C A35C: 0.4; for A28U A47U: 0.67.
The same measure for C12U C39U: 1.26.
The same measure for A28U A64G: 0.63.
Turning to U25C G63C, the self-cleavage amounted to 0.26.
The same measure for G9C G30C: 0.06.
The same measure for G9C G30U: 0.22.
The same measure for C4G U26A: 1.19; for U78C C81U: 1.15; for A18U G63C: 0.37.
As for G42A G63U, the self-cleavage was found to be 0.35.
The same measure for U66A U72C: 0.59; for A5G G8A: 0.23; for U48C G53A: 0.69.
As for U1C U80C, the figure is 1; as for U25C C34G, 0.27.
The same measure for C11G U76A: 0.49; for C62A A65U: 0.24; for A21U U60C: 0.2.
As to G46U U69C, the self-cleavage came to 0.53.
As for C44U U67C, the figure is 0.11.
